Measurements published in paper PMC2756588.

T1: Lsb3, P43603
T1 sequence (P43603 385-451, looked up): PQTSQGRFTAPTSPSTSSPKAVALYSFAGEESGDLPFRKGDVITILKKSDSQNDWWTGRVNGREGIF

T2: Bbc1, P47068
T2 sequence (P47068 1-78, looked up): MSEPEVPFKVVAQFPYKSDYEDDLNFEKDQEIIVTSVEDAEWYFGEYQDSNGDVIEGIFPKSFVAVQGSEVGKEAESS

T3: Nbp2, Q12163
T3 sequence (Q12163 103-180, looked up): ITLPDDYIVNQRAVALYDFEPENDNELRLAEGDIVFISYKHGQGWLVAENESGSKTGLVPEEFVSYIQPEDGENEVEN

T4: Cdc25, P04821
T4 sequence (P04821 50-136, looked up): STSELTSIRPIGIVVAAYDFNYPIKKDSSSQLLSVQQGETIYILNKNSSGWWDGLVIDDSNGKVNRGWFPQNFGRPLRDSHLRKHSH

T5: Hse1, P38753
T5 sequence (P38753 208-285, looked up): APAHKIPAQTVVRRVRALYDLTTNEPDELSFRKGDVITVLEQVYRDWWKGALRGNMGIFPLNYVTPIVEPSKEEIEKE

T6: Lsb4, P32793
T6 sequence (P32793 402-468, looked up): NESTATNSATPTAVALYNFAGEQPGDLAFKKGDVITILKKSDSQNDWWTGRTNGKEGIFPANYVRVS

T7: Sla1-3, P32790
T7 sequence (P32790 344-424, looked up): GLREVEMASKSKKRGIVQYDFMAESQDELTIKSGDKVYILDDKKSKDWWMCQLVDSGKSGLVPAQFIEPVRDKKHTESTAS

T8: Sla1-2, P32790
T8 sequence (P32790 60-140, looked up): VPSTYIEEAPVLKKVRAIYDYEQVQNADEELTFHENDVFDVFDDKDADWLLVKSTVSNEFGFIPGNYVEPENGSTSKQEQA

T9: Hof1, Q05080
T9 sequence (Q05080 590-669, looked up): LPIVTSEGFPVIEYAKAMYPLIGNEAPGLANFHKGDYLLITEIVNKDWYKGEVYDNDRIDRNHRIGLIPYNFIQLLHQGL

T10: Myo5, Q04439
T10 sequence (Q04439 1072-1160, looked up): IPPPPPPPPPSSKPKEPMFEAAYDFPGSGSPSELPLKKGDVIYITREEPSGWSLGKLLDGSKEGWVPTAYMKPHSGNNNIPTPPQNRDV

T11: Lsb1, P53281
T11 sequence (P53281 45-122, looked up): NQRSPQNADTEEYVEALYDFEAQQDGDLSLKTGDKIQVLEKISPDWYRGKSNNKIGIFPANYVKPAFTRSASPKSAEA

T12: Pex13, P80667
T12 sequence (P80667 295-386, looked up): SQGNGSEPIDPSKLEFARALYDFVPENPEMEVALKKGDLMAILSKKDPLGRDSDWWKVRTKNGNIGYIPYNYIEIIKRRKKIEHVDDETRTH

T13: Bud14, P27637
T13 sequence (P27637 247-328, looked up): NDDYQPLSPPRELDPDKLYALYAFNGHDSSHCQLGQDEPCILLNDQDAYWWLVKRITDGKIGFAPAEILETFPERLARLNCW

T14: Boi1, P38041
T14 sequence (P38041 1-86, looked up): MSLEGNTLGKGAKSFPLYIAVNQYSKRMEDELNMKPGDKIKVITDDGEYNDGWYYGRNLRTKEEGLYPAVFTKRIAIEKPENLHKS

T15: Fus1, P11710
T15 sequence (P11710 432-512, looked up): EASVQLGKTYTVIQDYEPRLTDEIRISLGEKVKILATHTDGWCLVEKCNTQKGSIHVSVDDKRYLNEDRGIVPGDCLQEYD

T16: Cyk3, Q07533
T16 sequence (Q07533 1-83, looked up): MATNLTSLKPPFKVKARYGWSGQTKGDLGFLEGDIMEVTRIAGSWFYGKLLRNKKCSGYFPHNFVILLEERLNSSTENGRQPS

T17: Abp1, P15891
T17 sequence (P15891 535-592, looked up): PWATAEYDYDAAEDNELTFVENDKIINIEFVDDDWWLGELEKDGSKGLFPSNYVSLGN

T18: Pin3, Q06449
T18 sequence (Q06449 53-122, looked up): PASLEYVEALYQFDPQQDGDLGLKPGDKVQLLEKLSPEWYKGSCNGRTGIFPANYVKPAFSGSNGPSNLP

T19: Bzz1-1, P38822
T19 sequence (P38822 478-572, looked up): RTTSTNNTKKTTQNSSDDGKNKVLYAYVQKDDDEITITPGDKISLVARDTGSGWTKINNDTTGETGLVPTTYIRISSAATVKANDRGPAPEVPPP

T20: Bzz1-2, P38822
T20 sequence (P38822 568-633, looked up): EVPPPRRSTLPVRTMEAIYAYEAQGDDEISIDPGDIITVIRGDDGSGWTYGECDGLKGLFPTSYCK

T21: Boi2, P39969
T21 sequence (P39969 32-116, looked up): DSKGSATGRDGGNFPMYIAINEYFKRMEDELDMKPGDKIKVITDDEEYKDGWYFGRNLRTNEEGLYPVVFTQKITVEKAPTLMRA

B1: unnamed (peptide)
chain: NPLPKEPRLPKRKVA
B2: unnamed (peptide)
chain: QQNRPLPQLPNRNNR
B3: unnamed (peptide)
chain: VQPTAAPATPPRHIS
B4: unnamed (peptide)
chain: PALPSLPPPPLLNVD
B5: unnamed (peptide)
chain: VATSTSPKLPPRGKQ
B6: unnamed (peptide)
chain: GATNNAPTLPKRKNP

target: Bem1-1, P29366; assay: SPOT array; settings: median of control spots 4282
Sequence (P29366 55-141): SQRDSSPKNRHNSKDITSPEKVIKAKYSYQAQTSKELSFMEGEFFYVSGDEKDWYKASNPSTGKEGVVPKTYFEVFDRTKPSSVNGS

SPOT intensity | Binder
0 | B1
3 | B2
2 | B3
0 | B4
6 | B5
0 | B6

target: T1, Lsb3, P43603; assay: SPOT array; settings: median of control spots 406

SPOT intensity | Binder
282 | B1
484 | B2
251 | B3
0 | B4
695 | B5
425 | B6

target: T2, Bbc1, P47068; assay: SPOT array; settings: median of control spots 796

SPOT intensity | Binder
221 | B1
40 | B2
2 | B3
0 | B4
23 | B5
6 | B6

target: T3, Nbp2, Q12163; assay: SPOT array; settings: median of control spots 357

SPOT intensity | Binder
0 | B1
0 | B2
0 | B3
0 | B4
0 | B5
0 | B6

target: T4, Cdc25, P04821; assay: SPOT array; settings: median of control spots 969

SPOT intensity | Binder
22 | B1
2 | B2
2 | B3
0 | B4
0 | B5
1 | B6

target: T5, Hse1, P38753; assay: SPOT array; settings: median of control spots 1727

SPOT intensity | Binder
191 | B1
23 | B2
0 | B3
0 | B4
0 | B5
1 | B6

target: Sho1, P40073; assay: SPOT array; settings: median of control spots 1148
Sequence (P40073 287-367): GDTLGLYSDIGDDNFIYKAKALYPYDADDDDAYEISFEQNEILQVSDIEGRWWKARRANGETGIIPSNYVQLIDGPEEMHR

SPOT intensity | Binder
107 | B1
1600 | B2
0 | B3
83 | B4
1 | B5
2 | B6

target: T6, Lsb4, P32793; assay: SPOT array; settings: median of control spots 397

SPOT intensity | Binder
288 | B1
484 | B2
251 | B3
0 | B4
275 | B5
570 | B6

target: T7, Sla1-3, P32790; assay: SPOT array; settings: median of control spots 5475

SPOT intensity | Binder
45 | B1
10 | B2
5 | B3
0 | B4
13 | B5
1 | B6

target: T8, Sla1-2, P32790; assay: SPOT array; settings: median of control spots 712

SPOT intensity | Binder
2 | B1
0 | B2
0 | B3
0 | B4
0 | B5
92 | B6

target: GST; assay: SPOT array; settings: median of control spots 978

SPOT intensity | Binder
2 | B1
0 | B2
0 | B3
0 | B4
0 | B5
0 | B6

target: T9, Hof1, Q05080; assay: SPOT array; settings: median of control spots 4086

SPOT intensity | Binder
5 | B1
112 | B2
0 | B3
6720 | B4
2 | B5
0 | B6

target: T10, Myo5, Q04439; assay: SPOT array; settings: median of control spots 471

SPOT intensity | Binder
0 | B1
0 | B2
0 | B3
688 | B4
0 | B5
0 | B6

target: Bem1-2, P29366; assay: SPOT array; settings: median of control spots 4347
Sequence (P29366 139-227): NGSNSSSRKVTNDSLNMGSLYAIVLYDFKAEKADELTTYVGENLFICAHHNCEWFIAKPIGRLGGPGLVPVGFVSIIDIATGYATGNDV

SPOT intensity | Binder
1 | B1
1 | B2
0 | B3
0 | B4
0 | B5
9 | B6

target: T11, Lsb1, P53281; assay: SPOT array; settings: median of control spots 388

SPOT intensity | Binder
19 | B1
176 | B2
45 | B3
0 | B4
561 | B5
64 | B6

target: T12, Pex13, P80667; assay: SPOT array; settings: median of control spots 1341

SPOT intensity | Binder
16 | B1
589 | B2
0 | B3
2 | B4
87 | B5
27 | B6

target: T13, Bud14, P27637; assay: SPOT array; settings: median of control spots 956

SPOT intensity | Binder
26 | B1
4 | B2
0 | B3
1 | B4
0 | B5
0 | B6

target: Rvs167, P39743; assay: SPOT array; settings: median of control spots 2707
Sequence (P39743 419-482): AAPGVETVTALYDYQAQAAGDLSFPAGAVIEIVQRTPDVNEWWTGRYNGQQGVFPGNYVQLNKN

SPOT intensity | Binder
200 | B1
1310 | B2
12 | B3
0 | B4
4100 | B5
2550 | B6

target: T14, Boi1, P38041; assay: SPOT array; settings: median of control spots 1162

SPOT intensity | Binder
4 | B1
1 | B2
0 | B3
0 | B4
0 | B5
12 | B6

target: T15, Fus1, P11710; assay: SPOT array; settings: median of control spots 1200

SPOT intensity | Binder
2 | B1
2 | B2
13 | B3
0 | B4
0 | B5
2 | B6

target: T16, Cyk3, Q07533; assay: SPOT array; settings: median of control spots 1451

SPOT intensity | Binder
4 | B1
0 | B2
0 | B3
0 | B4
1 | B5
0 | B6

target: Myo3, P36006; assay: SPOT array; settings: median of control spots 468

SPOT intensity | Binder
7 | B1
0 | B2
0 | B3
598 | B4
0 | B5
0 | B6

target: T17, Abp1, P15891; assay: SPOT array; settings: median of control spots 935

SPOT intensity | Binder
131 | B1
228 | B2
0 | B3
0 | B4
23 | B5
36 | B6

target: T18, Pin3, Q06449; assay: SPOT array; settings: median of control spots 2171

SPOT intensity | Binder
10 | B1
34 | B2
0 | B3
0 | B4
15 | B5
0 | B6

target: T19, Bzz1-1, P38822; assay: SPOT array; settings: median of control spots 4446

SPOT intensity | Binder
6 | B1
4 | B2
0 | B3
2 | B4
2 | B5
0 | B6

target: T20, Bzz1-2, P38822; assay: SPOT array; settings: median of control spots 4538

SPOT intensity | Binder
29 | B1
0 | B2
0 | B3
0 | B4
0 | B5
0 | B6

target: T21, Boi2, P39969; assay: SPOT array; settings: median of control spots 1161

SPOT intensity | Binder
2 | B1
1 | B2
0 | B3
0 | B4
1 | B5
58 | B6
